# Laboratory results taken from patent US11998613B2, “Antibody-drug conjugates containing an anti-mesothelin antibody and uses thereof” (DEVELOPMENT CENTER FOR BIOTECHNOLOGY, priority 2020, dated 2024).
# Legend:
# [1] = test system: Ovarian carcinoma cell line OVCAR-3 (MSLN+); assay: In vitro cytotoxicity, CellTiter-Glo luminescent cell viability assay, OVCAR-3; type: cell-based, human; details: OVCAR-3, 72 hours treatment; read-out: Relative IC50 (nM of toxic payload/ADCs)
# Protocol: The KLM-1 & OVCAR-3 cell lines were maintained in an atmosphere of 5% CO2 in a humidified 37° C. incubator. The day before treatment, cells were collected and seeded into 96-well plates (4,000 cells per well). On the second day, cells were treated with 3-fold serial dilution concentration of toxic payloads and ADCs. Each treatment was performed in eight triplicate data points. After the treatment of 72 hours, cell viability was assessed by CellTiter-Glo® kit (Promega) according to the manufacturer's instruction. At the end of the incubation, luminescence was measured using a SpectraMax i3x Multi Mode Detection Platform (Molecular Devices). Compound cytotoxicity was evaluated in comparison to cells treated with 0.05% PBS (ADCs) or 0.05% DMSO (toxic payload). IC50 values were calculated by fitting viability data with a four-parameter logistic equation using GraphPad prism 5.0 software.
# [2] = test system: OVCAR-3 human ovarian cancer xenograft; assay: OVCAR-3 xenograft model (Example 48); type: in vivo, female NOD SCID mice; details: for tumor growth: TGI≥58% considered significant
# Protocol: (§1) Five mice were housed in each cage.
# OVCAR-3 cells were subcutaneously (SC) implanted (1×10^7 cells in 1:1 PBS/matrigel mixture at 0.2 mL per mouse) into the right flank of female NOD SCID mice. […] Each of the vehicle, and DCBPR2002-4(DBCO-vc-MMAE) (5, 10, and 15 mg/kg) was intravenously administered once weekly for 3 weeks.
# (§2) Differences are considered significant at *P<0.05.
# [3] = test system: KLM-1 human pancreatic cancer xenograft; assay: KLM-1 xenograft model (Example 44); type: in vivo; details: for tumor growth / anti-tumor activity: TGI≥58% considered significant
# Protocol: (§3) Each of the formulations was administered intravenously (IV) to the mice once weekly for three weeks.
# as §1
# When the average tumor volume had reached 200 mm^3, the mice were randomLy divided into 4 groups (N=6 per group). Each of the vehicle, DCBPR2002-4(DBCO-vc-MMAE) (15 and 30 mg/kg), and naked antibody (DCBPR2002, 30 mg/kg) was intravenously administered once weekly for 3 weeks.
# as §2
# [4] = test system: KLM-1 human pancreatic cancer xenograft; assay: KLM-1 xenograft model (Example 43); type: in vivo, male NOD SCID mice; details: 15 mg/kg IV once weekly for 3 weeks
# Protocol: as §3, §1
# When the average tumor volume had reached about 200 mm^3, the mice were randomly divided into 3 groups (N=6 per group). Each of the vehicle, DCBPR2002-lysine-DBCO-vc-MMAE (15 mg/kg), and DCBPR2002-4(DBCO-vc-MMAE) (15 mg/kg) was intravenously administered once weekly for 3 weeks.
# as §2
# [5] = In vivo PK in rats, MSD ECL total and conjugated antibody assays; details: for AUC(0−last) / AUC(0−∞) / C0 / CL / MRT / Vss / t1/2: 5 mg/kg via the tail vein, serum
# Excerpt: This study used Meso Scale Discovery (MSD) Electrochemiluminescent (ECL) method to conduct the pharmacokinetic analysis of DCBPR2002-4(DBCO-vc-MMAE) in BALB/c mice and rat samples. The MSD assay can measure both conjugated and unconjugated antibodies. As illustrated in this example, or total antibody assay the plate is coated with goat anti-human IgG, which can capture all humanized antibodies (conjugated and unconjugated). For the conjugated antibody assay, the plate is coated with an antibody against the payload (drug), such as anti-MMAE antibody.
# The in vivo pharmacokinetic study was designed for the comparison the linker-payload stability of trimannosyl-conjugated and cysteine-conjugated synthesis ADC (Adcetris). The rats were administered DCBPR2002-4(DBCO-vc-MMAE) and Adcetris at a dose level of 5 mg/kg via the tail vein. Serum samples were then obtained at different time points for determination of the concentrations of DCBPR2002-4(DBCO-vc-MMAE) and Adcetris in rats by MESO QuickPlex SQ 120 method. The pharmacokinetic parameters of DCBPR2002-4(DBCO-vc-MMAE) and Adcetris were analyzed by noncompartmental analysis using Phoenix™ for WinNonlin Program, version 6.3.
# [6] = In vivo PK in mice, MSD ECL total and conjugated antibody assays; set-up: species or system BALB/c mice; details: 3 mg/kg via the tail vein
# Protocol: The mice were administered at a dose level of 3 mg/kg via the tail vein. Blood samples were then obtained at different time points for determining the concentrations of DCBPR2002-4(DBCO-vc-MMAE) in mice by MESO QuickPlex SQ 120 method.
# [7] = 5 mg/kg IV once weekly for 3 weeks
# [8] = 10 mg/kg IV once weekly for 3 weeks
# [9] = 15 mg/kg IV once weekly for 3 weeks
# [10] = 30 mg/kg IV once weekly for 3 weeks
molecule,measurement,setting,value
"DCBPR2002-4(DBCO-vc-MMAE): DCBPR2002-4Az reacted with DBCO-vc-MMAE; trimannosyl-conjugated ADC, DAR 3.89 (conjugate) VH: QVQLVQSGAEVKKPGASVKVSCKASGYSFTGYTMNWVRQAPGQGLEWMGLITPYNGASSYNQKFRGRVTMTRDTSISTAYMELSRLRSDDTAVYYCARGGYDGRGFDYWGQGTLVTVSS VL: EIVLTQSPATLSLSPGERATLSCSASSSVSYMHWYQQKPGQAPRLLIYDTSKLASGIPARFSGSGSGTDFTLTISSLEPEDFAVYYCQQWSKHPLTFGQGTKVEIKR",IC50,[1],1 nM
same,body weight changes,[2]; [7],No body weight loss was observed
same,tumor growth,[2]; [7],significantly reduced OVCAR-3 tumor growth with a dose-dependent manner
same,body weight changes,[2]; [8],No body weight loss was observed
same,tumor growth,[2]; [8],significantly reduced OVCAR-3 tumor growth with a dose-dependent manner
same,body weight changes,[2]; [9],No body weight loss was observed
same,tumor growth,[2]; [9],significantly reduced OVCAR-3 tumor growth with a dose-dependent manner
same,body weight changes,[3]; [9],No body weight loss was observed
same,tumor growth / anti-tumor activity,[3]; [9],significantly reduced KLM-1 tumor growth from Day 7 to Day 28
same,body weight changes,[3]; [10],No body weight loss was observed
same,tumor growth / anti-tumor activity,[3]; [10],significantly reduced KLM-1 tumor growth from Day 7 to Day 28
same,body weight changes,[4],No body weight loss was observed
same,tumor growth / anti-tumor activity,[4]; TGI≥58% considered significant,significantly reduced KLM-1 tumor growth from Day 7 to Day 28
same,AUC(0−last),[5]; Conjugated antibody,2334.505 µg·h/mL
same,AUC(0−∞),[5]; Conjugated antibody,2400.45 µg·h/mL
same,C0,[5]; Conjugated antibody,80955 ng/mL
same,CL,[5]; Conjugated antibody,2.1 mL/h/kg
same,MRT,[5]; Conjugated antibody,85.6 h
same,Vss,[5]; Conjugated antibody,0.179 L/kg
same,t1/2,[5]; Conjugated antibody,148 ± 8.14 h
same,AUC(0−last),[5]; Total antibody,4013.185 µg·h/mL
same,AUC(0−∞),[5]; Total antibody,4363.325 µg·h/mL
same,C0,[5]; Total antibody,94121 ng/mL
same,CL,[5]; Total antibody,1.14 mL/h/kg
same,MRT,[5]; Total antibody,160 h
same,Vss,[5]; Total antibody,0.183 L/kg
same,t1/2,[5]; Total antibody,194 ± 35.0 h
same,difference between the curve of total antibody and conjugated antibody (stability of the conjugated linker-payload),"[5]; 5 mg/kg, compared with Adcetris",closed on DCBPR2002-4(DBCO-vc-MMAE) than that of Adcetris
same,AUC(0−last),[6]; Conjugated antibody,2.264 µg·h/mL
same,C0,[6]; Conjugated antibody,275 ng/mL
same,MRT,[6]; Conjugated antibody,23.4 h
same,Vss,[6]; Conjugated antibody,0.155 L/kg
same,AUC(0−last),[6]; Total antibody,25.963 µg·h/mL
same,C0,[6]; Total antibody,346 ng/mL
same,MRT,[6]; Total antibody,299 h
same,Vss,[6]; Total antibody,0.129 L/kg
same,t1/2,[6]; Total antibody,220 h
